Measurements taken from patent US20140023646A1.

Columns and labels:
[1] = target: KIR receptors on NK cells (all inhibitory KIR2DL receptors); assay: cell-based or functional assay
[2] = target: recombinant KIR 2DL3 protein (entire extracellular domain, produced in E. coli, refolded) (human) (UniProt P43628); assay: SPR (Biacore), KIR 2DL3 immobilized on CM5 chip, soluble antibody as analyte
[3] = target: recombinant KIR 2DL1 protein (entire extracellular domain, produced in E. coli, refolded) (human) (UniProt P43626); assay: SPR (Biacore), KIR 2DL1 immobilized on CM5 chip, soluble antibody as analyte

Substance	increased expression of CD107a on NK cells [1]	Kd [2]	Kd [3]
human anti-KIR monoclonal antibody 1-7F9	0.5 to 13.6%	–	–
monoclonal antibody DF200 produced by hybridoma DF200	–	2 nM	10.9 nM
